In series [1] the target is T1, GST-hnRNPA1 (UniProt P09651 1-372). Description: EMSA; 50 mM KCl; bound at 1:1 ratio; EMSA: 50 mM Tris-HCl pH 7.4, 50 mM KCl, 1 mM EDTA, 1 mM Na3VO4, 5 mM NaF, 1 mM DTT, 8% glycerol, 25 C, 30 nM RNA; ITC: 10 mM KPi, 50 mM KCl, 25 C, 8 uM UP1. The following applies: protein: recombinant; tags: GST (N-terminal, pGEX4T1); label: Cy5.5 5'; rG4. In general terms: In EMSA bound probe runs differently from free probe, usually more slowly.

The target of series [2] is UP1 (UniProt P09651 1-196). The series can be described thus: ITC; 50 mM KCl; one-site fit, Kd not in material; EMSA: 50 mM Tris-HCl pH 7.4, 50 mM KCl, 1 mM EDTA, 1 mM Na3VO4, 5 mM NaF, 1 mM DTT, 8% glycerol, 25 C, 30 nM RNA; ITC: 10 mM KPi, 50 mM KCl, 25 C, 8 uM UP1. The following applies: protein: recombinant; tags: none (GST removed by PreScission); rG4, two stacked G-tetrads. (ITC needs no label: the signal is the heat of the interaction.)
Sequence of UP1 (P09651 1-196): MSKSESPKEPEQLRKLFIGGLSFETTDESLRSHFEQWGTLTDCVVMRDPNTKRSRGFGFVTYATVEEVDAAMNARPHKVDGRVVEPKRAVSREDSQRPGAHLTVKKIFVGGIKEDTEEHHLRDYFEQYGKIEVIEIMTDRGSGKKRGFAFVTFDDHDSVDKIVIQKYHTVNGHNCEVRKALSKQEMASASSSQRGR

The target in series [3] is T1, GST-hnRNPA1. The series can be described thus: EMSA; 10-fold molar excess of protein; EMSA: 50 mM Tris-HCl pH 7.4, 50 mM KCl, 1 mM EDTA, 1 mM Na3VO4, 5 mM NaF, 1 mM DTT, 8% glycerol, 25 C, 30 nM RNA; ITC: 10 mM KPi, 50 mM KCl, 25 C, 8 uM UP1. The following applies: protein: recombinant; tags: GST (N-terminal, pGEX4T1); unable to form rG4.

This note sets out measurements from PMC12449053, “Cortolezzis Ylenia Formal analysis Investigation Methodology Department of Medicine, Laboratory of Biochemistry, University of Udine, 33100 Udine, Italy”.

T1 sequence (P09651 whole entry): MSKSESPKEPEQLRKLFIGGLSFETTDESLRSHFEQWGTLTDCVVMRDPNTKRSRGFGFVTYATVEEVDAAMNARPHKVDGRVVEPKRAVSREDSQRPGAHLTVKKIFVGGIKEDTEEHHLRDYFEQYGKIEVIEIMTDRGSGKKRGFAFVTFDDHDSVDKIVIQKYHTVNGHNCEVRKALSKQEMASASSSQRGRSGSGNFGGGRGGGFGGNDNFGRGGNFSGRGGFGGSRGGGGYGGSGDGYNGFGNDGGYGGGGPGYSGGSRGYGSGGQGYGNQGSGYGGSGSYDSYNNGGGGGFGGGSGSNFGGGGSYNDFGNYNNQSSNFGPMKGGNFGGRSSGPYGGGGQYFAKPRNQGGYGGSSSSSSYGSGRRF

As to GCAGCGGCGGCGGCAGUGGCGGCGGCGAAGGUGGCGGCGGC (structured_RNA) [41-mer 5'UTR (utr-c + utr-z)], in series [1], the binding result is recorded as “binds”.

On to GGUGGCGGCGG (structured_RNA) [utr-c], for which, in series [2], the binding result is recorded as “binds”. GCAGCGCCAGCCGCAGUCGCGUCCGCGAACGUAGCCGCCGC (ssRNA) [41-mer 5'UTRmut]: the binding result in series [3] is “no binding”.
